For this assay, the target named is human 4-1BB (human) (UniProt Q07011). The assay is described as follows: flow cytometry; dilution series of HEK293T supernatant on Jurkat TPR cells expressing human 4-1BB. For orientation: Flow cytometry measures light scatter and fluorescence of single cells or particles in a stream.

The values that follow come from patent US20230303660A1.

Sequence of human 4-1BB (human) (Q07011 24-255): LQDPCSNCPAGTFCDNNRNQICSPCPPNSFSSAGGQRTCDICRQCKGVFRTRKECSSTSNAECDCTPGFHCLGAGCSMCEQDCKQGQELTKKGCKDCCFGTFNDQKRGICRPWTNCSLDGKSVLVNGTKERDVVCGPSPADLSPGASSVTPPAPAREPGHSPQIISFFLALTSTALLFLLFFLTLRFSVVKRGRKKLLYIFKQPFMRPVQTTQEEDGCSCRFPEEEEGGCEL

B1: s4-1BBL-TriXV (ligand)
chain: GSGSNWSHPQFEKGGSGGHHHHHHGGSGGGSRNLVTAFSNMDDMLQKAHLVIEGTFIYLRDSTEFFIRVRDGWKKLQLGELIPIPADSGSLDLRQGMFAQLVAQNVLLIDGPLSWYSDPGLAGVSLTGGLSYKEDTKELVVAKAGVYYVFFQLELRRVVAGEGSGSVSLALHLQPLRSAAGAAALALTVDLPPASSEARNSAFGFQGRLLHLSAGQRLGVHLHTEARARHAWQLTQGATVLGLFRVTPEIPAGLPSPRSE
B1 showed a supernatant dilution at which binding is no longer detectable (supernatant dilution (1:x)) of 512.

B2: Triple-s4-1BBL-TriXVIII^LL (ligand)
chain: GSGSNWSHPQFEKGGSGGHHHHHHGGSGGGSSGAGGSGGSSGSDGASGSGVRLWATRQAMLGQVHEVPEGWLIFVAEQEELYVRVQNGFRKVQLEARTPLPRGTDNEGSLDLRQGMFAQLVAQNVLLIDGPLSWYSDPGLAGVSLTGGLSYKEDTKELVVAKAGVYYVFFQLELRRVVAGEGSGSVSLALHLQPLRSAAGAAALALTVDLPPASSEARNSAFGFQGRLLHLSAGQRLGVHLHTEARARHAWQLTQGATVLGLFRVTPEIPAGLPSPRSEGGGGSGGGGSGGGGSLDLRQGMFAQLVAQNVLLIDGPLSWYSDPGLAGVSLTGGLSYKEDTKELVVAKAGVYYVFFQLELRRVVAGEGSGSVSLALHLQPLRSAAGAAALALTVDLPPASSEARNSAFGFQGRLLHLSAGQRLGVHLHTEARARHAWQLTQGATVLGLFRVTPEIPAGLPSPRSEGGGGSGGGGSGGGGSLDLRQGMFAQLVAQNVLLIDGPLSWYSDPGLAGVSLTGGLSYKEDTKELVVAKAGVYYVFFQLELRRVVAGEGSGSVSLALHLQPLRSAAGAAALALTVDLPPASSEARNSAFGFQGRLLHLSAGQRLGVHLHTEARARHAWQLTQGATVLGLFRVTPEIPAGLPSPRSE
On to B2, for which the supernatant dilution at which binding is no longer detectable (supernatant dilution (1:x)) was found to be 256.
